# According to patent US12702697B2, “Compositions and methods for treatment of headache disorders and neuropathic pain” (Washington University, priority 2019, dated 2026):
# B1: ld-IL2: Recombinant mouse IL2 (carrier-free; Biolegend), given as daily low-dose i.p. injection (protein, UniProt P04351 21-169, looked up)
# Interleukin-2: APTSSSTSSSTAEAQQQQQQQQQQQQHLEQLLMDLQELLSRMENYRNLKLPRMLTFKFYLPKQATELKDLQCLEDELGPLRHVLDLTQSKSFQLEDAENFISNIRVTVVKLKGSDNTFECQFDDESATVVDFLRRWIAFCQSIISTSPQ
# How the values were obtained:
# [1] = tested on: NTG-induced skin hypersensitivity in mice; assay: Mouse model of chronic migraine (repetitive NTG): hindpaw and facial von Frey thresholds, cheek acetone test; assay type: in vivo
# Experimental: Mouse model of chronic migraine and drug treatments: After measuring baseline nociceptive responses, mice received repetitive intraperitoneal (i.p.) injections of NTG (10 mg/kg in saline with 1% propylene glycol) or vehicle (saline with 1% propylene glycol in saline, 10 mL/kg) every 2 days for 4 or more times as described previously (Pradhan A A, et al. PAIN 2014; 155:269-74). Nocifensive behaviors were measured 2 days after each injection (before the next treatment). NTG (SDM27; Copperhead Chemical, Tamaqua, PA) was freshly diluted from the stock (10% in propylene glycol, aliquoted in airtight glass vials and stored at 4° C.) with saline for every injection. Recombinant mouse IL2 (carrier-free; Biolegend, San Diego, CA) was freshly diluted from the stock (1 mg/mL aliquots at […]) every day. Each mouse received daily i.p. injection of […] IL2 in […] saline. The control mice received daily i.p. injections of […] saline. In Treg depletion experiment, mice received 1 i.p. injection of antibodies against CD25 ([…], BP0012; BioXcell, West Lebanon, NH11) or control IgG (BP0088; BioXcell). The antibody binds to CD25 on Treg cell membrane and depletes Treg cells through Fcg receptor III-mediated antibody-dependent cellular cytotoxicity and antibody-dependent cellular phagocytosis (Setiady Y Y, et al, Eur J Immunol 2010; 40:780-6). Note that on the days that the mouse behaviors were tested, NTG, IL2 and/or antibodies were always injected after completing the behavioral tests.
# (§1) Responses to mechanical stimuli on the hindpaw. Mice were habituated in individual clear plexiglass boxes (11×11×15 cm) for 1 to 2 hours. A series of calibrated von Frey filaments was used to apply mechanical stimuli to the plantar surface of the hindpaws. The up-down paradigm was used to determine the 50% withdrawal threshold. The thresholds for both hindpaws were averaged to yield a single value for each mouse.
# Cheek acetone test. The acute nocifensive response to acetone-evoked evaporative cooling on mouse cheek was measured as previously described (Constandil L, et al. J Pain 2012; 13:579-89). The day before testing, both cheeks were shaved (6.5×12 mm) under brief anesthesia (2% isoflurane in 100% oxygen). On the test day, mice were habituated in individual plexiglass cylinders (11-cm diameter, 15-cm height) situated in front of 3-way mirrors for 1 to 2 hours. Acetone ([…]) was applied to the shaved cheeks and immediately returned mice to the cylinders. Time spent wiping the treated area was recorded by a video camera and quantified offline. For individual mice, acetone was applied alternatingly to both cheeks at 10-minute intervals, and the duration of behavior was averaged from 4 applications.
# Withdrawal responses to facial mechanical stimuli. The hair on mouse forehead (above and between 2 eyes) was shaved the day before testing. On the test day, the experimenter gently held the mouse on the palm with minimal restraint and applied the calibrated von Frey filament perpendicularly to the shaved skin, causing the filament to bend for 5 seconds. A positive response was determined by the following criteria as previously described: mouse vigorously stroked its face with the forepaw, head withdrawal from the stimulus, or head shaking (Elliott M B et al., Headache 2012; 52:966-84). The up-down paradigm was used to determine the 50% withdrawal threshold. […]
# [2] = tested on: Treg cells; assay: Flow cytometry of T-cell subsets in peripheral blood, cervical LNs and spleen; assay type: in vivo, mouse
# Text: Blood, spleen, and cervical lymph node cell preparation, antibody staining, flow cytometry, and enzyme-linked immunosorbent assay (ELISA). Adult male DEREG and C57BL/6J mice received 15 daily injections of saline or IL2. About […] blood was collected from each mouse by submandibular bleeding. Mice used for blood collection were not used in the behavioral tests. Spleen and cervical LN tissues were ground and filtered through a sterile […] cell strainer. After lysis of red blood cells (420301; Biolegend), cells were pelleted and resuspended for antibody staining, ELISA, and ELISPOT assay. Live cells were counted by the Vi-CELL Automated Cell Viability Analyzer (Beckman, Chaska, MN).
# About 2×10^6 suspension cells were stained with the following antibodies from Biolegend that recognizes mouse CD3e (clone 145-2C11), CD4 (clone GK1.5 and RM4-5), CD8 (clone 53-6.7), and CD25 (clone PC61). The percentages of individual cell phenotypes were determined using flow cytometric analysis. Data were collected with FACScan (Becton Dickinson, Franklin Lakes, NJ) and analyzed with CellQuest Pro (Becton Dickinson) and Rainbow X Alias (Cytek) softwares.
# [3] = tested on: sumatriptan-induced cutaneous hypersensitivity in mice; assay: Mouse model of medication overuse headache (repeated sumatriptan); assay type: in vivo
# Experimental: Mouse model of medication overuse headache. After measuring baseline nociceptive responses, mice received daily i.p. injections of sumatriptan succinate (0.6 mg/kg; Fresenius Kabi, Lake Zurich, IL44). Daily ld-IL2 or saline were administered after mice received 2 sumatriptan injections. Facial and hindpaw mechanical thresholds were measured every 2 days. Note that on the days that the mouse behaviors were tested, sumatriptan and/or IL2 were always injected after completing the behavioral tests.
# as §1
# Withdrawal responses to facial mechanical stimuli. The hair on mouse forehead (above and between 2 eyes) was shaved the day before testing. On the test day, the experimenter gently held the mouse on the palm with minimal restraint and applied the calibrated von Frey filament perpendicularly to the shaved skin, causing the filament to bend for 5 seconds. A positive response was determined by the following criteria as previously described: mouse vigorously stroked its face with the forepaw, head withdrawal from the stimulus, or head shaking (Elliott M B et al., Headache 2012; 52:966-84). The up-down paradigm was used to determine the 50% withdrawal threshold.
# [4] = human, in vivo; cited from earlier work
# [5] = ld-IL2 pretreatment, female C57BL/6J
# [6] = 15 days of ld-IL2, C57BL/6J males
molecule,measurement,setting,value
B1,basal hindpaw mechanical sensitivity,"[1]; 5 or 15 days of ld-IL2 injections, male C57BL/6J",not altered
same,established persistent facial mechanical hypersensitivity resulting from repeated NTG injections,"[1]; after 7 to 9 days of IL2 injections, female Swiss Webster",completely reverse
same,behavioral sensitization by subsequent NTG administrations,"[1]; continuous ld-IL2, female C57BL/6J, day 7-11",prevented
same,baseline facial mechanical threshold,"[1]; daily ld-IL2, female Swiss Webster",not altered
same,"daily ld-IL2 treatments to completely reverse NTG-induced facial hypersensitivity, first session","[1]; day 4-10, male C57BL/6J",7
same,"slope of ld-IL2-induced reversal (change of threshold per day), first session","[1]; day 5-11, male C57BL/6J",5.3±0.9
same,acute reduction of facial mechanical threshold 3 hours after NTG,"[1]; day 11, after 7 ld-IL2 injections, female C57BL/6J",did not cause an acute reduction
same,"NTG injections needed after cessation of IL2 to lower the threshold to the NTG+saline level, first session","[1]; day 11-13, male C57BL/6J",2 NTG injections
same,"ld-IL2 injections required to completely reverse NTG-induced mechanical hypersensitivity, second session","[1]; day 19-22, male C57BL/6J",4 injections
same,"slope of ld-IL2-induced reversal (change of threshold per day), second session","[1]; day 19-23, male C57BL/6J",10.3±1.3
same,NTG injections needed after cessation of the second ld-IL2 treatment to reduce the threshold to the NTG+saline level,"[1]; day 23-27, male C57BL/6J",3 NTG injections
same,development of facial cold hypersensitivity,"[1]; delayed ld-IL2 started after 2 NTG injections, female Swiss Webster",blocked the development
same,ld-IL2 injections sufficient to completely reverse the effect of repeated NTG,[1]; female C57BL/6J,3 injections
same,NTG-induced hindpaw mechanical hypersensitivity,"[1]; ld-IL2 pretreatment starting 5 days before first NTG, male C57BL/6J",completely blocked
same,NTG-induced facial cold hypersensitivity,[1]; [5],prevented the development
same,basal responses to acetone-induced cooling,[1]; [5],did not change
same,days of ld-IL2 treatment after which NTG-induced mechanical hypersensitivity started to reverse,"[1]; ld-IL2 started after 2 NTG injections, female Swiss Webster",5 days
same,effect of ld-IL2 on NTG-induced facial skin hypersensitivity in Treg-depleted mice,"[1]; mice given anti-CD25 antibody 3 days earlier, male C57BL/6J",completely abolished
same,percentage of EGFP+ Treg cells in the cervical LNs,"[2]; 15 daily ld-IL2 injections, male DEREG mice",increased significantly
same,number and frequency of CD25+CD4+ Treg cells in the spleen,[2]; [6],doubled
same,number of CD8+ cells in the spleen,[2]; [6],increased only slightly
same,increase of the frequency of EGFP+ Treg cells in the peripheral blood,"[2]; after 5 daily ld-IL2 injections i.p., male DEREG mice",more than 100%
same,frequencies of CD4+ and CD3+ T cells in the blood or LNs,"[2]; daily ld-IL2, 15 days",not altered
same,sumatriptan induced cutaneous hypersensitivity,[3]; after 4 to 6 ld-IL2 injections (day 7-9),significantly attenuated
same,sumatriptan induced cutaneous hypersensitivity,[3]; after 8 days of IL2 treatment (day 11),completely reversed
same,cutaneous hypersensitivity in response to subsequent sumatriptan injections,[3]; continuous ld-IL2 (day 13),neither male nor female mice developed cutaneous hypersensitivity
same,tolerability in patients,[4],well tolerated
